Results taken from patent US20030232013A1, “Therapeutic and diagnostic targeting of cancers cells with tumor homing peptides” (priority 2002, published 2003).
Like-named read-outs stand apart in the source and are kept apart here. Bridge positions count the residues as written; N and C are the ends. Peptide text beside a SMILES is read from it. * marks the point of attachment. DOTA = O=C(O)CN1CCN(CC(=O)O)CCN(CC(=O)*)CCN(CC(=O)O)CC1; Ahx = NCCCCCC(=O)O

Experiment: In vivo biodistribution in MB-231 tumor bearing SCID mice
Details: female, ICR SCID, mouse, iv, total radioactivity; for tissue uptake at 1 h / dose excreted at 1 h: 1 hour post-injection; for tissue uptake at 24 h / dose excreted at 24 h: 24 hours post-injection
Excerpt: In vivo iodistribution studies. Four- to 5-week old female ICR SCID ([…]) outbred mice were obtained from Taconic (Germantown, N.Y.). The mice were housed five animals per cage in sterile micro isolator cages in a temperature- and humidity-controlled room with a 12-hour light/12-hour dark schedule. The animals were fed autoclaved rodent chow (Ralston Purina Company, St. Louis, Mo.) and water ad libitum. Animals were housed one week prior to inoculation of tumor cells and anesthetized for injections with isoflurane (Baxter Healthcare Corp., Deerfield, Ill.) at a rate of 2.5% with 0.4L oxygen through a non-rebreathing anesthesia vaporizer.
Human breast cancer MB231 and T47D cells were injected on the bilateral subcutaneous (s.c.) flank with ˜5×10^6 cells in a suspension of 100 μl normal sterile saline per injection site. MB231 and T47D cells were allowed to grow in vivo two to three weeks post inoculation developing tumors ranging in sizes from 0.02-1.30 grams. The biodistribution and uptake of ^111In-DOTA-Phe^19-STh or ^111In-DOTA-6-Ahx-Phe^19-STh in tumor bearing SCID mice was studied. The mice (average weight, 25 g) were injected with aliquots (50-100 μl) of the radiolabeled peptide solution (55-75 kBq) in each animal via the tail vein. Tissues, organs and tumors were excised from the animals sacrificed at 1 hr, 4 hrs and 24 hrs p.i. For blocking studies, an access of non-radioactive 6-Ahx-Phe^19-STh (100 μg) was also injected along with the radiolabeled peptide solution. The radioactivity was measured in a NaI counter and the percent-injected dose per organ and the percent-injected dose per gram tissue were calculated (Tables 5 and 6). Animal studies were conducted in accordance with the highest standards of care as outlined in the NIH guide for Care and Use of Laboratory Animals and the Policy and Procedures for Animal Research at the Harry S. Truman Memorial VA Hospital and according to approved protocols.

CC(C)C[C@@H]1NC(=O)[C@H](CCC(=O)O)NC(=O)[C@@H]2CSSC[C@@H]3NC(=O)[C@H](C)NC(=O)[C@@H]4CCCN4C(=O)[C@H](CC(N)=O)NC(=O)[C@H](CSSC[C@H](NC(=O)[C@H](Cc4ccc(O)cc4)NC(=O)[C@H](CC(N)=O)NC(=O)[C@H](CO)NC(=O)[C@H](CO)NC(=O)[C@H](CC(N)=O)NC(=O)CCCCCNC(=O)CN4CCN(CC(=O)O)CCN(CC(=O)O)CCN(CC(=O)O)CC4)C(=O)N2)NC(=O)[C@H](CSSC[C@@H](C(=O)N[C@@H](Cc2ccccc2)C(=O)O)NC(=O)CNC(=O)[C@H]([C@@H](C)O)NC3=O)NC1=O [^111In-DOTA-6-Ahx-Phe^19-STh, metal not drawn] ({DOTA-Ahx}-NSSNYCCELCCNPACTGCF-OH; disulfide 6-11, 7-15, 10-18)
tissue uptake at 1 h (MB-231 tumor, MB-231 tumor, Blocking (100 μg non-radioactive 6-Ahx-Phe^19-STh co-injected), n = 4, read-out: biodistribution, Tumor): 0.84 ± 0.3 %ID/g
tissue uptake at 1 h (MB-231 tumor, MB-231 tumor, n = 5, read-out: biodistribution, Tumor): 0.7 ± 0.16 %ID/g
tissue uptake at 4 h (MB-231 tumor, MB-231 tumor, 4 hours post-injection, n = 5, read-out: biodistribution, Tumor): 0.24 ± 0.12 %ID/g
tissue uptake at 24 h (MB-231 tumor, MB-231 tumor, n = 4, read-out: biodistribution, Tumor): 0.13 ± 0.16 %ID/g
tissue uptake at 1 h (blood, Blocking (100 μg non-radioactive 6-Ahx-Phe^19-STh co-injected), n = 4, read-out: biodistribution, Blood): 0.85 ± 0.31 %ID/g
tissue uptake at 1 h (blood, n = 5, read-out: biodistribution, Blood): 0.57 ± 0.13 %ID/g
tissue uptake at 4 h (blood, 4 hours post-injection, n = 5, read-out: biodistribution, Blood): 0.04 ± 0.05 %ID/g
tissue uptake at 24 h (blood, n = 4, read-out: biodistribution, Blood): 0.01 ± 0.02 %ID/g
dose excreted at 24 h (faeces, n = 4, read-out: biodistribution, Feces (Avg % ID)): 14.2 ± 17.3%
tissue uptake at 1 h (heart, Blocking (100 μg non-radioactive 6-Ahx-Phe^19-STh co-injected), n = 4, read-out: biodistribution, Heart): 0.24 ± 0.11 %ID/g
tissue uptake at 1 h (heart, n = 5, read-out: biodistribution, Heart): 0.14 ± 0.03 %ID/g
tissue uptake at 4 h (heart, 4 hours post-injection, n = 5, read-out: biodistribution, Heart): 0.06 ± 0.06 %ID/g
tissue uptake at 24 h (heart, n = 4, read-out: biodistribution, Heart): 0.03 ± 0.03 %ID/g
tissue uptake at 1 h (kidney, Blocking (100 μg non-radioactive 6-Ahx-Phe^19-STh co-injected), n = 4, read-out: biodistribution, Kidney): 12.8 ± 2.01 %ID/g
tissue uptake at 1 h (kidney, n = 5, read-out: biodistribution, Kidney): 4.98 ± 0.67 %ID/g
tissue uptake at 4 h (kidney, 4 hours post-injection, n = 5, read-out: biodistribution, Kidney): 4.96 ± 0.5 %ID/g
tissue uptake at 24 h (kidney, n = 4, read-out: biodistribution, Kidney): 2.94 ± 0.42 %ID/g
tissue uptake at 1 h (large intestine, Blocking (100 μg non-radioactive 6-Ahx-Phe^19-STh co-injected), n = 4, read-out: biodistribution, Large Intestine): 0.17 ± 0.03 %ID/g
tissue uptake at 1 h (large intestine, n = 5, read-out: biodistribution, Large Intestine): 0.37 ± 0.05 %ID/g
tissue uptake at 4 h (large intestine, 4 hours post-injection, n = 5, read-out: biodistribution, Large Intestine): 0.66 ± 0.52 %ID/g
tissue uptake at 24 h (large intestine, n = 4, read-out: biodistribution, Large Intestine): 1.5 ± 2.59 %ID/g
tissue uptake at 1 h (liver, Blocking (100 μg non-radioactive 6-Ahx-Phe^19-STh co-injected), n = 4, read-out: biodistribution, Liver): 0.33 ± 0.06 %ID/g
tissue uptake at 1 h (liver, n = 5, read-out: biodistribution, Liver): 0.2 ± 0.03 %ID/g
tissue uptake at 4 h (liver, 4 hours post-injection, n = 5, read-out: biodistribution, Liver): 0.09 ± 0.02 %ID/g
tissue uptake at 24 h (liver, n = 4, read-out: biodistribution, Liver): 0.05 ± 0.02 %ID/g
tissue uptake at 1 h (lung, Blocking (100 μg non-radioactive 6-Ahx-Phe^19-STh co-injected), n = 4, read-out: biodistribution, Lung): 0.49 ± 0.12 %ID/g
tissue uptake at 1 h (lung, n = 5, read-out: biodistribution, Lung): 0.31 ± 0.04 %ID/g
tissue uptake at 4 h (lung, 4 hours post-injection, n = 5, read-out: biodistribution, Lung): 0.08 ± 0.05 %ID/g
tissue uptake at 24 h (lung, n = 4, read-out: biodistribution, Lung): 0.01 ± 0.02 %ID/g
tissue uptake at 1 h (muscle, Blocking (100 μg non-radioactive 6-Ahx-Phe^19-STh co-injected), n = 4, read-out: biodistribution, Muscle): 0.1 ± 0.08 %ID/g
tissue uptake at 1 h (muscle, n = 5, read-out: biodistribution, Muscle): 0.1 ± 0.08 %ID/g
tissue uptake at 4 h (muscle, 4 hours post-injection, n = 5, read-out: biodistribution, Muscle): 0.04 ± 0.05 %ID/g
tissue uptake at 24 h (muscle, n = 4, read-out: biodistribution, Muscle): 0.02 ± 0.04 %ID/g
tissue uptake at 1 h (pancreas, Blocking (100 μg non-radioactive 6-Ahx-Phe^19-STh co-injected), n = 4, read-out: biodistribution, Pancreas): 0.21 ± 0.04 %ID/g
tissue uptake at 1 h (pancreas, n = 5, read-out: biodistribution, Pancreas): 0.13 ± 0.03 %ID/g
tissue uptake at 4 h (pancreas, 4 hours post-injection, n = 5, read-out: biodistribution, Pancreas): 0.05 ± 0.02 %ID/g
tissue uptake at 24 h (pancreas, n = 4, read-out: biodistribution, Pancreas): 0.03 ± 0.02 %ID/g
tissue uptake at 1 h (small intestine, Blocking (100 μg non-radioactive 6-Ahx-Phe^19-STh co-injected), n = 4, read-out: biodistribution, Small Intestine): 0.85 ± 1.19 %ID/g
tissue uptake at 1 h (small intestine, n = 5, read-out: biodistribution, Small Intestine): 0.99 ± 0.18 %ID/g
tissue uptake at 4 h (small intestine, 4 hours post-injection, n = 5, read-out: biodistribution, Small Intestine): 0.28 ± 0.07 %ID/g
tissue uptake at 24 h (small intestine, n = 4, read-out: biodistribution, Small Intestine): 0.21 ± 0.13 %ID/g
tissue uptake at 1 h (spleen, Blocking (100 μg non-radioactive 6-Ahx-Phe^19-STh co-injected), n = 4, read-out: biodistribution, Spleen): 0.12 ± 0.14 %ID/g
tissue uptake at 1 h (spleen, n = 5, read-out: biodistribution, Spleen): 0.15 ± 0.1 %ID/g
tissue uptake at 4 h (spleen, 4 hours post-injection, n = 5, read-out: biodistribution, Spleen): 0.05 ± 0.05 %ID/g
tissue uptake at 24 h (spleen, n = 4, read-out: biodistribution, Spleen): 0.02 ± 0.04 %ID/g
tissue uptake at 1 h (stomach, Blocking (100 μg non-radioactive 6-Ahx-Phe^19-STh co-injected), n = 4, read-out: biodistribution, Stomach): 2.18 ± 3.69 %ID/g
tissue uptake at 1 h (stomach, n = 5, read-out: biodistribution, Stomach): 0.31 ± 0.33 %ID/g
tissue uptake at 4 h (stomach, 4 hours post-injection, n = 5, read-out: biodistribution, Stomach): 0.03 ± 0.01 %ID/g
tissue uptake at 24 h (stomach, n = 4, read-out: biodistribution, Stomach): 0.09 ± 0.09 %ID/g
dose excreted at 1 h (urine, Blocking (100 μg non-radioactive 6-Ahx-Phe^19-STh co-injected), n = 4, read-out: biodistribution, Urine (Avg % ID)): 87.4 ± 4.5%
dose excreted at 1 h (urine, n = 5, read-out: biodistribution, Urine (Avg % ID)): 89.4 ± 2.9%
dose excreted at 4 h (urine, 4 hours post-injection, n = 5, read-out: biodistribution, Urine (Avg % ID)): 95.8 ± 1.4%
dose excreted at 24 h (urine, n = 4, read-out: biodistribution, Urine (Avg % ID)): 82.5 ± 20.3%
